In US20050152898A1 (BIOVATION, published 2005):
Numbering of substitutions follows the chain as printed.

T1: CD52 human leukocyte antigen (human, UniProt P31358 25-36)
T1 construct: whole, on cells; also called CD52 antigen
T1 chain (looked up): GQNDTSQTSSPS

B1: DIVH5/DIVK5 (antibody, human IgG1, V domains shown)
VH: EVQLLESGGGLVQPGGSLRLSCAGSGFTFTDFYMNWIRQPPGKAPEWLGFIRDKAKGYTTEYNPSVKGRFTISRDNSKNTLYLQMNSLRAEDTAVYYCAREGHTAAPFDYWGQGTLVTVSS
VL: DIQMTQSPSSLSASVGDRVTITCKASQNIDKYLNWYQQKPGKSPKLLIYNTNNLQTGVPSRFSGSGSGTDFTLTISSLQPEDIATYYCLQHISRPRTFGTGTKLELK
notes: also called DIVHv5/DIVKv5
B2: DIVH3/DIVK4 (antibody, human IgG1, V domains shown)
VH: EVKLQESGGGLVQPGGSMRISCSGSGFTFTDFYMNWIRQPPGKGPEWIGFIRDKAKGYTTEYNPSVKGRFTISRDNTQNTLHLQANTLRAEDTAVYYCAREGHTAAPFDYWGQGTTVTVSS
VL: B1 VL with S43A, L46S
notes: also called DIVHv3/DIVKv4
B3: DIVH3/DIVK5 (antibody, human IgG1, V domains shown)
VH: B2 VH
VL: B1 VL
notes: also called DIVHv3/DIVKv5
B4: DIVH3/DIVK1 (antibody, human IgG1, V domains shown)
VH: B2 VH
VL: B1 VL with K24R, S43A, L46S, T56S
notes: also called DIVHv3/DIVKv1

Target: T1, CD52 human leukocyte antigen
Test: FACS on HUT-78 cells (CD52+), FITC anti-human IgG Fc, median fluorescence, 4-parameter fit; titre = 50% of maximum binding
Description: Human T-cell lymphoma cell line HUT-78 is CD52 positive and was used to assess binding of the modified antibodies of the present invention. In the present example, different concentrations of test antibody were incubated with the cells and the amount of bound antibody was assessed following incubation with a fluorescent-labelled reporter reagent. The reporter is measured using a fluorescence activated cell sorter (FACS).
For detection, the cells were incubated for 1 hour on ice with a 1:1000 dilution of FITC-labelled anti-human IgG Fc domain. This reagent is a goat anti-human IgG (Fc specific) obtained from Sigma (Poole, UK). The cells were washed as previously and re-suspended in 100 μl of PBS/2% FBS and transferred to 4 ml FACS tubes (Becton Dickinson) containing 900 μl of PBS/2% FBS/Propidium Iodide (1:1000). The cells were analysed using a conventional Becton Dickenson FACS Calibur instrument.
The binding of the test and control antibodies was determined using the Median Fluorescence value. The saturating concentration of antibody was determined from plots of the Median Fluorescence—Zero Antibody Median Fluorescence versus Concentration of antibody. The binding curves were fitted to a logistic 4 parameter sigmoidal equation using SigmaPlot, giving an excellent fit with 95% confidence levels.

| EC50 [µg/mL] | Binder |
| --- | --- |
| 3 | B1 |
| 8.63 | B2 |
| 3.3 | B3 |
| 9.6 | B4 |
